# Test results: patent publication US20210130470A1 (MacroGenics, published 2021)
# T1: soluble hCTLA-4-Avi-His (human, UniProt P16410 36-161)
# T1 construct: also called soluble human CTLA-4-Avi-His
# T1 sequence: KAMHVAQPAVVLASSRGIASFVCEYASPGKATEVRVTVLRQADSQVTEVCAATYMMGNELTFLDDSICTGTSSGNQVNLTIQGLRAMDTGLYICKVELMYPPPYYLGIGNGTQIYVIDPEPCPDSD
# T2: His-tagged soluble human CTLA-4 (human, UniProt P16410 36-161)
# T2 construct: also called shCTLA-4
# T2 sequence: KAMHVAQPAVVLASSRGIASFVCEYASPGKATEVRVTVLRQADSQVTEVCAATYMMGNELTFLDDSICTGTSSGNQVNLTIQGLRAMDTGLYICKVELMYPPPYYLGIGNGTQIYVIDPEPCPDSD
# T3: human CTLA-4 expressed on the cell surface (human, UniProt P16410 36-223)
# T3 construct: also called huCTLA-4; CHO cells expressing human CTLA-4
# T3 sequence: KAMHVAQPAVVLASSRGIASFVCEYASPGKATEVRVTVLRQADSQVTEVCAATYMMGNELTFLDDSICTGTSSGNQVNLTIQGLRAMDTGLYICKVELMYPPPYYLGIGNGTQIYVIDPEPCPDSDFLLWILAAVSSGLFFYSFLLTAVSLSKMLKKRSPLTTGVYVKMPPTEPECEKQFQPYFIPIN
# T4: cynomolgus monkey CTLA-4 expressed on CHO cells (cynomolgus monkey, UniProt G7PL88 36-223)
# T4 construct: also called cynoCTLA-4
# T4 sequence: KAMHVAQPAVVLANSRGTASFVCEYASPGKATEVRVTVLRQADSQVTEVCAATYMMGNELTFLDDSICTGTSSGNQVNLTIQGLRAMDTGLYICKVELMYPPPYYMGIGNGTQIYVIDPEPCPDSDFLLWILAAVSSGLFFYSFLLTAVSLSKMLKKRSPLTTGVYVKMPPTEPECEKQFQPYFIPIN
# Experiments:
# hPD-1-His [1] = target: T5, hPD-1-His (human, UniProt Q15116 25-170, limits assumed); experiment: ELISA: shPD-1-his coated, detection goat anti-human Fc-gamma-HRP 1:10000, chemiluminescence RLU
# T5 construct: also called His-tagged soluble human PD-1; shPD-1
# Source text: (§1) FIGS. 8A-8D show the results of ELISA studies measuring the binding of serially diluted binding molecules to human CTLA-4 and human PD-1. […] Goat anti-human-Fc-HRP (1:10,000) was employed as the secondary detection molecule to detect binding. FIGS. 8C-8D show the results of a study on the effect of altering orientations and binding domains on binding. […] Goat anti-human-Fcγ-HRP was employed as the secondary detection molecule to detect binding using PICO chemiluminescent substrate.
# soluble hCTLA-4-Avi-His = target: T1, soluble hCTLA-4-Avi-His; experiment: ELISA: shCTLA-4-Avi-His coated at 1 ug/mL, detection goat anti-human Fc-gamma-HRP 1:10000, chemiluminescence RLU
# Source text: as §1
# [2] = target: T2, His-tagged soluble human CTLA-4; experiment: competition ELISA: plate coated with shCTLA-4 and shPD-1 1:1 (2 ug/ml each); blocked ligand biotin-labeled B7-1 0.2 ug/ml, streptavidin-HRP, RLU
# Description: (§2) Plates were coated with a 1:1 mix of shCTLA-4 and irrAg (2 μg/ml each), a 1:1 mix of shCTLA-4 shPD-1 (2 μg/ml each), or a 1:4 mix of shCTLA-4 (0.8 μg/ml) and shPD-1 (3.2 μg/ml).
# [3] = target: T2, His-tagged soluble human CTLA-4; experiment: competition ELISA: plate coated with shCTLA-4 0.8 ug/ml and shPD-1 3.2 ug/ml (1:4); blocked ligand biotin-labeled B7-1 0.2 ug/ml, streptavidin-HRP, RLU
# Description: as §2
# [4] = target: T6, His-tagged soluble cynomolgus monkey CTLA-4 (cynomolgus monkey); experiment: BIACORE, His-tagged soluble cyno CTLA-4 captured on anti-PentaHis, binder passed over at 12.5-200 nM; affinity by 1:1 Langmuir binding model
# T6 construct: extracellular domain; also called Cyno CTLA-4
# Description: (§3) Briefly, His-tagged soluble CTLA-4 (an extracellular portion of human or cynomolgus monkey CTLA-4 fused to a histidine-containing peptide) was captured on immobilized anti-PentaHis and then different concentrations (12.5-200 nM) of the CTLA-4 binding molecules were passed over the immobilized CTLA-4 proteins. The kinetics of binding were determined via BIACORE® analysis (affinity by 1:1 Langmuir binding model (simultaneous ka/kd); or avidity by separate ka/kd 1:1 fit).
# [5] = target: T7, PD-1 expressed on the cell surface (human, UniProt Q15116 21-288); experiment: cell-based competition (FACS): blocked ligand PD-L1-PE binding to NSO-PD-1 cells, MFI
# T7 construct: also called NSO cells expressing PD-1; NSO-PD-1 cells
# hPD-1-His [6] = target: T5, hPD-1-His; experiment: competition ELISA: plate coated with shPD-1 and irrelevant antigen 1:1 (2 ug/ml each); blocked ligand biotin-labeled PD-L1 6 ug/ml, streptavidin-HRP, RLU
# Description: (§4) A series of ELISA assays were conducted to evaluate the ability of bispecific molecules of the invention to block ligand binding to PD-1 and […], alone and in combination. […] Plates were coated with a 1:1 mix of His-tagged soluble human PD-1 (shPD-1) and a His-tagged irrelevant antigen (irrAg) (2 μg/ml each), or a 1:1 mix of shPD-1 and a His-tagged soluble human CTLA-4 (shCTLA-4) (2 μg/ml each).
# hPD-1-His [7] = target: T5, hPD-1-His; experiment: competition ELISA: plate coated with shPD-1 and shCTLA-4 1:1 (2 ug/ml each); blocked ligand biotin-labeled PD-L1 6 ug/ml, streptavidin-HRP, RLU
# Description: as §4
# [8] = target: T7, PD-1 expressed on the cell surface; experiment: cell-based competition (FACS): blocked ligand PD-L2-PE binding to NSO-PD-1 cells, MFI
# [9] = target: T3, human CTLA-4 expressed on the cell …; experiment: cell-based competition: blocked ligand His-B7-1 10 ng/ml binding to CTLA-4 Jurkat cells, detected with anti-His antibody, GMFI-APC
# [10] = target: T7, PD-1 expressed on the cell surface; experiment: flow cytometry on NSO cells expressing PD-1 but not CTLA-4, MFI (APC)
# [11] = target: T3, human CTLA-4 expressed on the cell …; experiment: cell-based competition: blocked ligand His-B7-2 116.8 ng/ml binding to CTLA-4 Jurkat cells, detected with anti-His antibody, GMFI-APC
# [12] = target: T3, human CTLA-4 expressed on the cell …; experiment: flow cytometry on CHO cells expressing human CTLA-4, anti-human Fc secondary antibody, GMFI
# [13] = target: T4, cynomolgus monkey CTLA-4 expressed on …; experiment: flow cytometry on CHO cells expressing cynomolgus monkey CTLA-4, anti-human Fc secondary antibody, GMFI
# [14] = target: T6, His-tagged soluble cynomolgus monkey …; experiment: BIACORE, His-tagged soluble cyno CTLA-4 captured on anti-PentaHis, binder passed over at 12.5-200 nM; avidity by separate ka/kd 1:1 fit
# Description: as §3
Binder,EC50 (read off the curve) (hPD-1-His [1]) [nM],IC50 (read off the curve) [5] [nM],IC50 (read off the curve) (hPD-1-His [6]) [nM],IC50 (read off the curve) [8] [nM],Kd [14] [nM],also measured
"DART B (bispecific antibody, Four-chain Fc diabody, PD-1 mAb 6-ISQ x CTLA-4 mAb 1, IgG4 (YTE), E/K-coils; two sites for PD-1 and two for CTLA-4) chain 1: not shown chain 2: EIVLTQSPATLSLSPGERATLSCRASESVDNYGMSFMNWFQQKPGQPPKLLIHAASNQGSGVPSRFSGSGSGTDFTLTISSLEPEDFAVYFCQQSKEVPYTFGGGTKVEIKGGGSGGGGQVQLVESGGGVVQPGRSLRLSCAASGFTFSSYTMHWVRQAPGKGLEWVTFISYDGNNKYYADSVKGRFTISRDNSKNTLYLQMNSLRAEDTAIYYCARTGWLGPFDYWGQGTLVTVSSGGCGGGKVAACKEKVAALKEKVAALKEKVAALKE",~0.5,–,–,–,–,–
"DART C (bispecific antibody, Four-chain Fc diabody, CTLA-4 mAb 3 x PD-1 mAb 6-ISQ, IgG4 Fc, E/K-coils) chain 1: not shown chain 2: EIVLTQSPATLSLSPGERATLSCRASESVDNYGMSFMNWFQQKPGQPPKLLIHAASNQGSGVPSRFSGSGSGTDFTLTISSLEPEDFAVYFCQQSKEVPYTFGGGTKVEIKGGGSGGGGQVQLVESGGGVVQPGRSLRLSCAASGFTFSSYTMHWVRQAPGKGLEWVTFISYDGSNKHYADSVKGRFTVSRDNSKNTLYLQMNSLRAEDTAIYYCARTGWLGPFDYWGQGTLVTVSSGGCGGGKVAACKEKVAALKEKVAALKEKVAALKE",~0.5,–,–,–,–,EC50 (read off the curve) (soluble hCTLA-4-Avi-His): ~0.4 nM
"TRIDENT A (bispecific antibody, human IgG4 S228P, kappa, Four-chain trivalent molecule: two PD-1 sites (PD-1 mAb 6-ISQ, diabody type), one CTLA-4 site (CTLA-4 mAb 3, Fab type), knob/hole IgG4 (YTE)) chain 1: EIVLTQSPATLSLSPGERATLSCRASESVDNYGMSFMNWFQQKPGQPPKLLIHAASNQGSGVPSRFSGSGSGTDFTLTISSLEPEDFAVYFCQQSKEVPYTFGGGTKVEIKGGGSGGGGQVQLVQSGAEVKKPGASVKVSCKASGYSFTSYWMNWVRQAPGQGLEWIGVIHPSDSETWLDQKFKDRVTITVDKSTSTAYMELSSLRSEDTAVYYCAREHYGTSPFAYWGQGTLVTVSSGGCGGGEVAACEKEVAALEKEVAALEKEVAALEKESKYGPPCPPCPAPEFLGGPSVFLFPPKPKDTLYITREPEVTCVVVDVSQEDPEVQFNWYVDGVEVHNAKTKPREEQFNSTYRVVSVLTVLHQDWLNGKEYKCKVSNKGLPSSIEKTISKAKGQPREPQVYTLPPSQEEMTKNQVSLWCLVKGFYPSDIAVEWESNGQPENNYKTTPPVLDSDGSFFLYSRLTVDKSRWQEGNVFSCSVMHEALHNHYTQKSLSLSLG chain 2: EIVLTQSPATLSLSPGERATLSCRASESVDNYGMSFMNWFQQKPGQPPKLLIHAASNQGSGVPSRFSGSGSGTDFTLTISSLEPEDFAVYFCQQSKEVPYTFGGGTKVEIKGGGSGGGGQVQLVQSGAEVKKPGASVKVSCKASGYSFTSYWMNWVRQAPGQGLEWIGVIHPSDSETWLDQKFKDRVTITVDKSTSTAYMELSSLRSEDTAVYYCAREHYGTSPFAYWGQGTLVTVSSGGCGGGKVAACKEKVAALKEKVAALKEKVAALKE chain 3: QVQLVESGGGVVQPGRSLRLSCAASGFTFSSYTMHWVRQAPGKGLEWVTFISYDGSNKHYADSVKGRFTVSRDNSKNTLYLQMNSLRAEDTAIYYCARTGWLGPFDYWGQGTLVTVSSASTKGPSVFPLAPCSRSTSESTAALGCLVKDYFPEPVTVSWNSGALTSGVHTFPAVLQSSGLYSLSSVVTVPSSSLGTKTYTCNVDHKPSNTKVDKRVESKYGPPCPPCPAPEFLGGPSVFLFPPKPKDTLYITREPEVTCVVVDVSQEDPEVQFNWYVDGVEVHNAKTKPREEQFNSTYRVVSVLTVLHQDWLNGKEYKCKVSNKGLPSSIEKTISKAKGQPREPQVYTLPPSQEEMTKNQVSLSCAVKGFYPSDIAVEWESNGQPENNYKTTPPVLDSDGSFFLVSRLTVDKSRWQEGNVFSCSVMHEALHNRYTQKSLSLSLG chain 4: not shown",–,~0.8,~1,~1,–,IC50 (read off the curve) [2]: ~10 nM; IC50 (read off the curve) [3]: ~3 nM; Kd [4]: 260 nM; IC50 (read off the curve) (hPD-1-His [7]): ~1 nM
"DART D (bispecific antibody, human IgG4 S228P, Four-chain Fc diabody, PD-1 mAb 6-ISQ x CTLA-4 mAb 3, IgG4 (YTE), E/K-coils) chain 1: EIVLTQSPATLSLSPGERATLSCRASESVDNYGMSFMNWFQQKPGQPPKLLIHAASNQGSGVPSRFSGSGSGTDFTLTISSLEPEDFAVYFCQQSKEVPYTFGGGTKVEIKGGGSGGGGQVQLVESGGGVVQPGRSLRLSCAASGFTFSSYTMHWVRQAPGKGLEWVTFISYDGSNKHYADSVKGRFTVSRDNSKNTLYLQMNSLRAEDTAIYYCARTGWLGPFDYWGQGTLVTVSSGGCGGGEVAACEKEVAALEKEVAALEKEVAALEKESKYGPPCPPCPAPEFLGGPSVFLFPPKPKDTLYITREPEVTCVVVDVSQEDPEVQFNWYVDGVEVHNAKTKPREEQFNSTYRVVSVLTVLHQDWLNGKEYKCKVSNKGLPSSIEKTISKAKGQPREPQVYTLPPSQEEMTKNQVSLTCLVKGFYPSDIAVEWESNGQPENNYKTTPPVLDSDGSFFLYSRLTVDKSRWQEGNVFSCSVMHEALHNHYTQKSLSLSLG chain 2: not shown",~0.5,~0.8,~0.8,~1,4.9,IC50 (read off the curve) [9]: ~4 nM; EC50 (read off the curve) [10]: ~1 nM; IC50 (read off the curve) [11]: ~5 nM; EC50 (read off the curve) [12]: ~2 nM; EC50 (read off the curve) [13]: ~2 nM
"CTLA-4 mAb 1 (antibody, IgG1, V domains shown, IgG1, natural antibody structure; also called ipilimumab replica) VH: QVQLVESGGGVVQPGRSLRLSCAASGFTFSSYTMHWVRQAPGKGLEWVTFISYDGNNKYYADSVKGRFTISRDNSKNTLYLQMNSLRAEDTAIYYCARTGWLGPFDYWGQGTLVTVSS VL: not shown",–,–,–,–,1.3,–
